According to IntAct's records for PubMed 16983070:

B1: SH2 domain-containing protein 1A (Homo sapiens), O60880-1 (parent)
chain: MDAVAVYHGKISRETGEKLLLATGLDGSYLLRDSESVPGVYCLCVLYHGYIYTYRVSQTETGSWSAETAPGVHKRYFRKIKNLISAFQKPDQGIVIPLQYPVEKKSSARSTQGTTGIREDPDVCLKAP
B2: Rho guanine nucleotide exchange factor 7 (Homo sapiens), Q14155 (parent)
chain: MNSAEQTVTWLITLGVLESPKKTISDPEGFLQASLKDGVVLCRLLERLLPGTIEKVYPEPRSESECLSNIREFLRGCGASLRLELLFPPSQPPQHLVTTILLSASTFDANDLYQGQNFNKVLSSLVTLNKVTADIGLGSDSVCARPSSHRIKSFDSLGSQSLHTRTSKLFQGQYRSLDMTDNSNNQLVVRAKFNFQQTNEDELSFSKGDVIHVTRVEEGGWWEGTLNGRTGWFPSNYVREVKASEKPVSPKSGTLKSPPKGFDTTAINKSYYNVVLQNILETENEYSKELQTVLSTYLRPLQTSEKLSSANISYLMGNLEEICSFQQMLVQSLEECTKLPEAQQRVGGCFLNLMPQMKTLYLTYCANHPSAVNVLTEHSEELGEFMETKGASSPGILVLTTGLSKPFMRLDKYPTLLKELERHMEDYHTDRQDIQKSMAAFKNLSAQCQEVRKRKELELQILTEAIRNWEGDDIKTLGNVTYMSQVLIQCAGSEEKNERYLLLFPNVLLMLSASPRMSGFIYQGKLPTTGMTITKLEDSENHRNAFEISGSMIERILVSCNNQQDLQEWVEHLQKQTKVTSVGNPTIKPHSVPSHTLPSHPVTPSSKHADSKPAPLTPAYHTLPHPSHHGTPHTTINWGPLEPPKTPKPWSLSCLRPAPPLRPSAALCYKEDLSKSPKTMKKLLPKRKPERKPSDEEFASRKSTAALEEDAQILKVIEAYCTSAKTRQTLNSTWQGTDLMHNHVLADDDQPSLDSLGRRSSLSRLEPSDLSEDSDYDSIWTAHSYRMGSTSRKSCCSYISHQN
partner: B1 chain

Variants of: B1
Settings: with arhg7_human ARHGEF7, Q14155

| Variant | effect of a mutation on the interaction |
| --- | --- |
| MDAVAVYHGKISRETGEKLLLATGLDGSYLLRDSESVPGVYCLCVLYHGYIYTYRVSQTETGSWSAETAPGVHKRYFAKIKNLISAFQKPDQGIVIPLQYPVEKKSSARSTQGTTGIREDPDVCLKAP [R78A] | disrupting interaction strength |

Variants of: B2
Settings: with SH2D1A

| Variant | effect of a mutation on the interaction |
| --- | --- |
| W221P;W222G | disrupting interaction strength |
